# Experimental data reported in the DeepSol protein solubility set.
# Experiment: soluble on expression in E. coli; label from the status in PepcDB or PDB records
row,Sequence,soluble on expression in E. coli
1,MGSDKIHHHHHHMDGRGLKAYATPIRKFWVVLLQQRRMAMAENEKYLDWAREVLHTEAEGLREIAAELDENFVLAADALLHCKGRVVITGMGKSGHIGRKMAATMASTGTPAFFVHPAEAAHGDLGMIVDNDVVAAISNSGESDEITAIIPALKRKDITLVCITARPDSTMARHADIHITASVSQEACPLGLAPTTSTTAVMALGDALAVVLLRARAFTPDDFALIHPAGSLGKRLLLRVADIMHKGGGLPAVRLGTPLKGAIVSMSEKGLGMLAVTDGQGCLKGVFTDGDLRRLFQECDNFTGLSIDEVMHTHPKTISAERLATEALKVMQANHVNGLLVTDADGVLTGALNMHDLLAARIV,not soluble
2,MPEQSIEMTPDSSVYKALLESTKAIPWKINWQTMAFEYIGPQIEALLGWPQGSWKSVEDWATRMHPEDQEWVVNFCVKQSECGVDHEADYRALHRDGHYVWIRDVVHVVRDDSGEVEALIGFMFDISERKKTLEHHHHHH,not soluble
3,MAHHHHHHMALEIDIDNVISKLIEVRGTRPGKNVNLTENEIKILCLSSREIFLNQPILLELEAPIKICGDIHGQFYDLLRLFEYGGFPPDANYLFLGDYVDRGKQSLETICLLLAYKIKYPENFFLLRGNHECASINRIYGFYDECKRRYSVKLWKTFIDCFNCLPVAAIIDEKIFCMHGGLSPELNNMEQIRKITRPTDVPDNGLLCDLLWSDPEKEINGWGENDRGVSFTFGQDVVHNFLRKHELDLICRAHQVVEDGYEFFAKRQLVTLFSAPNYCGEFDNAGAMMSVDETLMCSFQILKPVEKKKAAN,not soluble
4,MGSDKIHHHHHHMLSNRELLQKLLKGIETGDPAAAAVVNEEKYIQHYPQTHEGSEGLAVLFARLAKTNPRVRFVRVFEDGDFAFAHNEYDFASLRVAFEVFRFENGRAVEHWDNIQPMLGPNPSGRGMLDGVTQITDLERTEANRALVRDFAQRVLVGRQLDFLGSCVDDGLIQHDPEIADGRAAYRAALEAVTNGQPRLHYTRLHRVLAEGNFVLCMCEGERDGVHSSFYDLFRVENDTIIEHWNTIEAIAPRNEWKNENGKF,not soluble
5,MGSSHHHHHHSSGLVPRGSHMVHAFPHGTTATPTAIAVPPSLRLPVIEAAFPRQLHPYWPKLQETTRTWLLEKRLMPADKVEEYADGLCYTDLMAGYYLGAPDEVLQAIADYSAWFFVWDDRHDRDIVHGRAGAWRRLRGLLHTALDSPGDHLHHEDTLVAGFADSVRRLYAFLPATWNARFARHFHTVIEAYDREFHNRTRGIVPGVEEYLELRRLTFAHWIWTDLLEPSSGCELPDAVRKHPAYRRAALLSQEFAAWYNDLCSLPKEIAGDEVHNLGISLITHHSLTLEEAIGEVRRRVEECITEFLAVERDALRFADELADGTVRGKELSGAVRANVGNMRNWFSSVYWFHHESGRYMVDSWDDRSTPPYVNNEAAGEK,soluble
6,MAHHHHHHSLTTDLPAAYHIEQRAHAFPWSEKTFASNQGERYLNFQLTQNGKMAAFAITQVVLDEATLFNIAVDPDYQRQGLGRALLEHLIDELEKRGVATLWLEVRASNAAAIALYESLGFNEATIRRNYYPTTDGREDAIIMALPISMEG,not soluble
7,MASLPTANPDLVVSDAKKPKWSWRAIKSFAMGELEARKLKYPNTGTEALLMGILIEGTSFTSKFLRANKIMLYKVREETVKLLGKADMYFFSPEHPPLTEDAQRALDSALDQNLKAGGIGEVMPAHILLGIWSEVESPGHKILATLGFTDEKSKELESFASESGFLDELEHHHHHH,soluble
8,MYKIGIDVGGTNTDAVILDHQLNLIHSVKVPTTDDIQTGIAGALNKVLAESAVDPTKVTHAMLGTTQCTNAIVERKKLAKVGVLRLGYPATASVLPYTAWPKDLVATLSETYALAHGGYEYDGQPLTALDEEELRGILASWRGEVEAIAVIGVFSSLKNDQELFVQALAKEVL,not soluble
9,GPGSMPHSMDTTLFSDENRIDRGDSLLFHCVQLSQGGTDSHRYFFGCYFPRWRGFYMDEARELPGPLGYNVTRHFPAFPFDVYLKDDGEHFLTDDFQIGSIFTLGGPLNQRDDGQKRYKVVHCDDSQLRTRTGKTLAFIGNNVSGLLQQTHRVSGEAIDALKRIREAYIFNVGNGIPEVGIKAMGRHFRKVGSDGRRWMSYEGIVRFVKDSRNFNATLSFSDTQRTEEDVNTVATCIYNAFPKNEEECIDYDFFMDYVRGPMSQERKDAVWNIFRRMDYDRDGNLNIIDIQACYNTQDHPTCSVDHLFQSDKMLKGFLTIWDENERCGLVPYAEFLDYYNGVSAVLEDDKVFFDVLNNQWKLL,soluble
10,MGSDKIHHHHHHMATTIKNRYEFVLFFDVENGNPNGDPDADNMPRIDPETSFGLVSDVCIKRKIRNYVALLKENEDDYQIYVQEKAVLNNQHKKAYEHFKIKPESKKLPKDTAQAEAITQFMCKNFYDIRTFGAVMTTEVNCGQVRGPVQLGFSRSLDPIVPQEITITRMAVTNERDLEKERTMGRKHIVNYALYRAEGFISAPLADKTGFSEEDLELLWDALINMFDHDRSAARGKMSSRKLYVFKHDSKLGNAPASILFDAITVKKINGNKPVRNFSDYEISVTGNEIPQGVEVLELL,not soluble
11,MAYDLWYWDGIPGRGEFVRLALEAGKIPYRDRAREPGEDMLADMRRRRDTAPFAPPYLVADGMTIAQTANILLFLGVEHGLAPPDRAGRLWVNQLQLTIADLTAEAHDVHHPVAAGLYYEDQQDVALRRAADFRETRMPKFMQYFEQALDRPGGWLTDMGRWSYADLSLYHVVEGLLHAFPRRMRTLMHRYPRLMTLHARVAELPELRGYLASDRRLPFGDGIFRHYPELDGA,not soluble
12,MKQLTVEDAKQIELEILDYIDTLCKKHNINYIINYGTLIGAVRHEGFIPWDDDIDLSMPREDYQRFINIFQKEKSKYKLLSLETDKNYFNNFIKITDSTTKIIDTRNTKTYESGIFIDIFPIDRFDDPKVIDTCYKLESFKLLSFSKHKNIVYKDSLLKDWIRTAFWLLLRPVSPRYFANKIEKEIQKYSRENGQYMAFIPSKFKEKEVFPSGTFDKTIDLPFENLSLPAPEKFDTILTQFYGDYMTLPPEEKRFYSHEFHAYKLEDLEHHHHHH,soluble
13,MTNIIKIRASVFIPMSWTEAKMDMETGQVIQFEGDSREFTPHAVNTMRSRVEQEVVVDFYKQEVFSYANTGITTEKVISPDGSVNKRTGKASTENIVCTDIVWNSGGVQFKMSASASNPLNVYAPPVDYVLNVCVKKDGSIDVQGEHDGFPCFEFYKQVDFGPFEKIYTHDFRETGDTAAALGGNMDYSFTKRL,soluble
14,GMKSLHRPDLYSWSTFNPARNIDFNGFAWIRPEGNILIDPVALSNHDWKHLESLGGVVWIVLTNSDHVRSAKEIADQTYTKIAGPVAEKENFPIYCDRWLSDGDELVPGLKVMELQGSKTPGELALLLEETTLITGDLVRAYRAGGLEILPDEKLMNKQKVVASVRRLAALEKVEAVLVGDGWSVFRDGRDRLKELVATLA,soluble
15,MKLIFLSGVKRSGKDTTADFIMSNYSAVKYQLAGPIKDALAYAWGVFAANTDYPCLTRKEFEGIDYDRETNLNLTKLEVITIMEQAFCYLNGKSPIKGVFVFDDEGKESVNFVAFNKITDVINNIEDQWSVRRLMQALGTDLIVNNFDRMYWVKLFALDYLDKFNSGYDYYIVPDTRQDHEMDAARAMGATVIHVVRPGQKSNDTHITEAGLPIRDGDLVITNDGSLEELFSKIKNTLKVL,soluble
16,MARAIWKGAISFGLVHIPVALVSATTSNSVDFDWLDKRSMDPVGYKRINKVTGKEVTKENIVKGVLHEKDRYVVLSEEEIRSAHPKSTQTIDIFAFVDSQQIPLQNIDTPYFLTPDKRGEKVYALLRETLVDTQKVALANVVLHTREHLAAVMPLESALVMVILRWPADVRELDALELTEAVTDARLTKSERDMARRLVKDMSADWQPDQYHDTFQEKIMQLVQTKAGEGKIEDVETDPGEEERKSADVIDLTDLLRRSLAGKSSASKTRKPAAKDKVADKQSPKPKRPAVRKKTGKAS,not soluble
17,GPVWRKHYITYRINNYTPDMNREDVDYAIRKAFQVWSNVTPLKFSKINTGMADILVVFARGAHGDDHAFDGKGGILAHAFGPGSGIGGDAHFDEDEFWTTHSGGTNLFLTAVHEIGHSLGLGHSSDPKAVMFPTYKYVDINTFRLSADDIRGIQSLYGDPKENQRLPNPDNSEPALCDPNLSFDAVTTVGNKIFFFKDRFFWLKVSERPKTSVNLISSLWPTLPSGIEAAYEIEARNQVFLFKDDKYWLISNLRPEPNYPKSIHSFGFPNFVKKIDAAVFNPRFYRTYFFVDNQYWRYDERRQMMDPGYPKLITKNFQGIGPKIDAVFYSKNKYYYFFQGSNQFEYDFLLQRITKTLKSNSWFGC,soluble
